Results as given in patent US20110287023A1.

Molecular target: HMG1 purified from calf (bovine) thymus (bovine) (UniProt P10103)
Test: cell-based or functional assay

HMG1 purified from calf (bovine) thymus (bovine), sequence (P10103 2-215 limits assumed): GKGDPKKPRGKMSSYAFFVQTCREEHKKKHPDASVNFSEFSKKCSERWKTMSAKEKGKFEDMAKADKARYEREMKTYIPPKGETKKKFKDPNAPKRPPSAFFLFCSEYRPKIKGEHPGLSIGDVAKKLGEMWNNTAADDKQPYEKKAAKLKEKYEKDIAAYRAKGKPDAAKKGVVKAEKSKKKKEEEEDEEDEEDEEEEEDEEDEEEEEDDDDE

IFN-α release (HMGB/CpG-A mediated enhanced TLR9 signaling): > 95%
Substance: RAGE-Fc fusion protein (species not stated)
